Source: article PMC5928113, “Properties of the ternary complex formed by yeast eIF4E, p20 and mRNA” (Scientific Reports, 2018)
Blank lines part the entries; values can stand above or below the molecule they belong to.

What was measured:
[1] = target: T1, eIF4E (His6x-eIF4E) (Saccharomyces cerevisiae, UniProt P07260); assay: microscale thermophoresis, RED-tris-NTA labelled protein; type: binding; conditions: read-out: Cap-analog / MST
T1 construct: gene CDC33; recombinant, N-terminal His6x tag kept, codon-optimized gene in pET3a, E. coli BL21 Rosetta 2 (DE3)
T1 sequence (P07260 1-213): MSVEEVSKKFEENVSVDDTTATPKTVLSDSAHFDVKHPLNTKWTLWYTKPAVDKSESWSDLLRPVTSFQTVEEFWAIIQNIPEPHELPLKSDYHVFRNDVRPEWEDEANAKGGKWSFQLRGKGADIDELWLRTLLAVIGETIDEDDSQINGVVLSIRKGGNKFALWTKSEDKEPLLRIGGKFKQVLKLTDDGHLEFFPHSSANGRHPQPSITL
Source text: microscale thermophoresis, RED-tris-NTA labelled protein on eIF4E (His6x-eIF4E)

[2] = target: T2, eIF4E/p20 complex (eIF4E/His6x-p20) (Saccharomyces cerevisiae, UniProt P07260); assay: as above; type: binding; conditions: read-out: Cap-analog / MST
T2 construct: gene CDC33; recombinant complex, untagged eIF4E (pET28a) co-expressed with His6x-p20 (pET3a, tag kept) in E. coli BL21 Rosetta 2 (DE3); with Cap-associated protein CAF20
T2 sequence (P07260 1-213): T1 sequence (P07260 1-213)
T2 sequence (P12962 1-161 partner): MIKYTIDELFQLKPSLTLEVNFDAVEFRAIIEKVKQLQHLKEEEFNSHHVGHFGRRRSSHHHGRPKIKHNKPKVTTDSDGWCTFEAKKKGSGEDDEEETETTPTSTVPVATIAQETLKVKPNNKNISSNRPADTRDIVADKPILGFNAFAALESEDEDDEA
Source text: microscale thermophoresis, RED-tris-NTA labelled protein on eIF4E/p20 complex (eIF4E/His6x-p20)

[3] = target: T3, His6x-eIF4E (Saccharomyces cerevisiae) (UniProt P07260); assay: MST; conditions: 5' m7GpppG cap (Vaccinia Capping System), Buffer A: 10 mM sodium phosphate pH 7.5, 100 mM NaCl, 2.5 mM MgCl2, 1 mM DTT, 0.05% NP40, MST at 25 C (proteins for capped RNA MST RED-tris-NTA labeled in …)
T3 sequence: T1 sequence (P07260 1-213)

[4] = target: T3, His6x-eIF4E (Saccharomyces cerevisiae); assay: EMSA; conditions: 5' m7GpppG cap (Vaccinia Capping System); Buffer A: 10 mM sodium phosphate pH 7.5, 100 mM NaCl, 2.5 mM MgCl2, 1 mM DTT, 0.05% NP40; MST at 25 C (proteins for capped RNA MST RED-tris-NTA labeled in …)
[5] = target: T4, His6x-eIF4E (Saccharomyces cerevisiae, UniProt P07260 1-213); assay: MST; up to 96 uM protein; Buffer A: 10 mM sodium phosphate pH 7.5, 100 mM NaCl, 2.5 mM MgCl2, 1 mM DTT, 0.05% NP40; MST at 25 C (proteins for capped RNA MST RED-tris-NTA labeled in buffer B: 20 mM HEPES-KOH pH 7.5, 50 mM NaCl, 1 mM DTT); EMSA 1.5% agarose, 1x TBE, temperature not stated; conditions: protein: recombinant; tags: N-terminal His6x; label: 3' FAM
T4 sequence: T1 sequence (P07260 1-213)

Kd [1]: 425 nM | Kd [2]: 420 nM
Molecule: C[n+]1cn([C@@H]2O[C@H](COP(=O)(O)OP(=O)(O)OP(=O)(O)OC[C@H]3O[C@@H](n4cnc5c(=O)[nH]c(N)nc54)[C@H](O)[C@@H]3O)[C@@H](O)[C@H]2O)c2nc(N)[nH]c(=O)c21 [m^7GpppG]

Molecule: GGGAACAAAAGCUGGUAAUCAAGAAUUACAAGAAACAAAAAUUCAAGUAAAUAACAGAUAAUAC [capped SSA1 5'UTR RNA, 64 nt]
Kd [3]: 226 nM | Kd ([3]; no peptide, control of the peptide experiment): 230 nM | Kd [4]: 275 nM

Molecule: GUAUUACAAGAAACAAAAAUUCAAGUAAAUAACAGAUAAU (ssRNA) [uncapped SSA1 5'UTR RNA, 40 nt]
binding result [5]: no binding
